We go through one molecule from US20100113291A1 (CENTRE NATIONAL DE LA RECHERCHE SCIENTIFIQUE, priority 2006, published 2010).

The test is classed as biochemical. The note with it: acetoacetyl-CoA and NADPH both at 100 μM.

B1: MabA-wt: wild-type protein MabA of Mycobacterium tuberculosis, SEQ ID NO: 1 (protein, listed as Mycobacterium tuberculosis)
chain: MTATATEGAKPPFVSRSVLVTGGNRGIGLAIAQRLAADGHKVAVTHRGSGAPKGLFGVECDVTDSDAVDRAFTAVEEHQGPVEVLVSNAGLSADAFLMRMTEEKFEKVINANLTGAFRVAQRASRSMQRNKFGRMIFIGSVSGSWGIGNQANYAASKAGVIGMARSIARELSKANVTANVVAPGYIDTDMTRALDERIQQGALQFIPAKRVGTPAEVAGVVSFLASEDASYISGAVIPVDGGMGMGH
In the case of B1, the Vi amounted to 0.60 ± 0.01 µmol/min/mg.
